# Experimental data reported in patent publication US20200339680A1.
# B1: TM-4 (antibody, V domains shown)
# VH: EVQVQQSGPVLVKPGASVKMSCKASGYTFTDYYMNWVKQSHGKNLEWIGVINPYNGGTSYHQKFKGKATLTVDKSSSTAYMELNSLTSEDSAVYYCARAATVVAGFDYWGQGTTLTVSS
# VL: QAVVTQESALTTSPGETVTLTCRSSTGAVTTSNYANWVQEKPDHLFTGLIGGTNNRAPGVPARFSGSLIGDKAALTITGAQTEDEAIYFCVLWYSNHLVFGGGTKLTVL
# Legend:
# human TMEM106B (human) [1] = target: human TMEM106B (human) (UniProt Q9NUM4); assay: FACS, supernatant, hu-transfected HEK293
# human TMEM106B (human) [2] = target: human TMEM106B (human) (UniProt Q9NUM4); assay: FACS A549 1 ug/ml
# human TMEM106B (human) [3] = target: human TMEM106B (human) (UniProt Q9NUM4); assay: FACS HEK+huTMEM 0.1 ug/ml (2nd column so headed)
# human TMEM106B (human) [4] = target: human TMEM106B (human) (UniProt Q9NUM4); assay: FACS HEK+huTMEM 1.0 ug/ml
# human TMEM106B (human) [5] = target: human TMEM106B (human) (UniProt Q9NUM4); assay: FACS HEK+huTMEM 0.1 ug/ml
# human TMEM106B (human) [6] = target: human TMEM106B (human) (UniProt Q9NUM4); assay: FACS HeLa
# human TMEM106B (human) [7] = target: human TMEM106B (human) (UniProt Q9NUM4); assay: FACS, transfected HEK293
# mouse TMEM106B (mouse) [8] = target: mouse TMEM106B (mouse) (UniProt Q80X71); assay: FACS, transfected HEK293
# human TMEM106B (human) [9] = target: human TMEM106B (human) (UniProt Q9NUM4); assay: FACS A549
# human TMEM106B (human) [10] = target: human TMEM106B (human) (UniProt Q9NUM4); assay: FACS HEK+huTMEM 10 ug/ml
# mouse TMEM106B (mouse) [11] = target: mouse TMEM106B (mouse) (UniProt Q80X71); assay: FACS Neuro2a
# human TMEM106B (human) [12] = target: human TMEM106B (human) (UniProt Q9NUM4); assay: FACS A549 10 ug/ml
# human TMEM106B (human) [13] = target: human TMEM106B (human) (UniProt Q9NUM4); assay: FACS U251
binder,measurement,setting,value
B1,fold over negative controls,human TMEM106B (human) [1],> 2 fold
same,MFI,human TMEM106B (human) [2],373 MFI
same,MFI,human TMEM106B (human) [3],282 MFI
same,MFI,human TMEM106B (human) [4],415 MFI
same,MFI,human TMEM106B (human) [5],304 MFI
same,MFI,human TMEM106B (human) [6],323 MFI
same,fold over parental HEK293,human TMEM106B (human) [7],1.13 fold
same,fold over parental HEK293,mouse TMEM106B (mouse) [8],1.97 fold
same,MFI,human TMEM106B (human) [9],916 MFI
same,MFI,human TMEM106B (human) [10],846 MFI
same,MFI,mouse TMEM106B (mouse) [11],325 MFI
same,MFI,human TMEM106B (human) [12],443 MFI
same,MFI,human TMEM106B (human) [13],349 MFI
